Test results published in patent US20230295597.

Tests used:
[1] = biological target: T1, trADAMTS-13^R312A (truncated ADAMTS-13 mutant, Arg312 to Ala)
T1 chain: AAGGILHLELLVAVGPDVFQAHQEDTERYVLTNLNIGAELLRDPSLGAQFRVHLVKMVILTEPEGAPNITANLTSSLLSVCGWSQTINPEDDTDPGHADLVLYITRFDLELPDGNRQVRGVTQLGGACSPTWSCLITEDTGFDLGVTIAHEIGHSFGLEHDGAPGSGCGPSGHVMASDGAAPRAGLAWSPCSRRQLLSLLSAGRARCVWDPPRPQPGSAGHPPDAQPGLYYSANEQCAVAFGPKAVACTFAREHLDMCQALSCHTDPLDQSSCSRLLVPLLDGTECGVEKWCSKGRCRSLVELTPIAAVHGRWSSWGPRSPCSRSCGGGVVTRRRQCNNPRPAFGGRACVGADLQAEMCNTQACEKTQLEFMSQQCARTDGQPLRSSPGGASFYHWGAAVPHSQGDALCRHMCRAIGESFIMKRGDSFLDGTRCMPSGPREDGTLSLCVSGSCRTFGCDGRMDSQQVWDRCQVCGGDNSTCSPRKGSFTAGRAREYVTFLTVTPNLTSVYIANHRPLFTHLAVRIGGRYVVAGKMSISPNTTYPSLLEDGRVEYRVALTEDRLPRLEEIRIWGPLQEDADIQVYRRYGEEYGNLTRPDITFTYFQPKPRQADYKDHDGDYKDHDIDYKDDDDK

[2] = biological target: T2, trADAMTS-13^R312K (truncated ADAMTS-13 mutant, Arg312 to Lys)
T2 chain: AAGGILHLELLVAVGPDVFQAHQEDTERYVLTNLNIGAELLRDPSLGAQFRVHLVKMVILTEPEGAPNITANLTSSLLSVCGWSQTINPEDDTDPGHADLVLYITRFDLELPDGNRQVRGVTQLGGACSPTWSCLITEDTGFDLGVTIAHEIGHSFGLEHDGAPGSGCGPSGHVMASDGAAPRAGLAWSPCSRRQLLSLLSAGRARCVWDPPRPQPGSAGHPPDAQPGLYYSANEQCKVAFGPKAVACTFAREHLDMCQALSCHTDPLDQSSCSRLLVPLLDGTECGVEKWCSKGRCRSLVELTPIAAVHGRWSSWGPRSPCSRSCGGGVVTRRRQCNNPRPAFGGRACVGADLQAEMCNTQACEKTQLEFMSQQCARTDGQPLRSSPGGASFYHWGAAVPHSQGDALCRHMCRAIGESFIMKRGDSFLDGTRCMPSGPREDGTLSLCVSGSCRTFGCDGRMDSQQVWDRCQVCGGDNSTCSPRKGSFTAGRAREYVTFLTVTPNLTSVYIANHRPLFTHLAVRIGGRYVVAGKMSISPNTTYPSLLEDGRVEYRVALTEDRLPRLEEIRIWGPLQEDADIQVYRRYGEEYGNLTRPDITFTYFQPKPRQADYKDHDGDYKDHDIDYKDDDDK

[3] = biological target: T3, trADAMTS-13^V313A (truncated ADAMTS-13 mutant, Val313 to Ala)
T3 chain: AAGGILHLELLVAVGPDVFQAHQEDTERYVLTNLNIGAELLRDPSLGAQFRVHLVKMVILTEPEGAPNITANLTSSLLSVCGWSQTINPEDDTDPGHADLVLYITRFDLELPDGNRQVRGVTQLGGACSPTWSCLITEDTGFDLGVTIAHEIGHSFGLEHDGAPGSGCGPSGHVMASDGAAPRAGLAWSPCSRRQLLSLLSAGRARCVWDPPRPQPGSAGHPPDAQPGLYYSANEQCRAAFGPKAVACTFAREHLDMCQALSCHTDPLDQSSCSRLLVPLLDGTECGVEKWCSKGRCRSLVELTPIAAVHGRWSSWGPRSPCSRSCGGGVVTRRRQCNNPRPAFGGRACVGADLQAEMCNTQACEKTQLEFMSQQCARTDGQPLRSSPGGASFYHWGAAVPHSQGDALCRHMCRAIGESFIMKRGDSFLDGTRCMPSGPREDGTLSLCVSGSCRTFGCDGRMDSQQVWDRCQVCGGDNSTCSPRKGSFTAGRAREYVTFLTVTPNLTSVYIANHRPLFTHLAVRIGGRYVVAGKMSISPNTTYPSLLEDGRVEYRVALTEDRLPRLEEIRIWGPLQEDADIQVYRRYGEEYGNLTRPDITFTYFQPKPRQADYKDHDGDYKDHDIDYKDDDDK

B1: tissue plasminogen activator (tPA) (protein)
chain: SYQVICRDEKTQMIYQQHQSWLRPVLRSNRVEYCWCNSGRAQCHSVPVKSCSEPRCFNGGTCQQALYFSDFVCQCPEGFAGKCCEIGNSDCYFGNGSAYRGTHSLTESGASCLPWNSMILIGKVYTAQNPSAQALGLGKHNYCRNPDGDAKPWCHVLKNRRLTWEYCDVPSCSTCGLRQYSQPQFRIKGGLFADIASHPWQAAIFAKHRRSPGERFLCGGILISSCWILSAAHCFQERFPPHHLTVILGRTYRVVPGEEEQKFEVEKYIVHKEFDDDTYDNDIALLQLKSDSSRCAQESSVVRTVCLPPADLQLPDWTECELSGYGKHEALSPFYSERLKEAHVRLYPSSRCTSQHLLNRTVTDNMLCAGDTRSGGPQANLHDACQGDSGGPLVCLNDGRMTLVGIISWGLGCGQKDVPGVYTKVTNYLDWIRDNMRP
**Q.** B1 was tested. Which “residual proteolytic activity on vWF after 6 hours with or without tPA” value [1] did it give?
**A.** tPA inhibited the proteolytic activity of trADAMTS-13^R312A and trADAMTS-13^V313A variants on vWF (FIG. 8)

**Q.** And the “cleavage by tPA (Western blot) and residual proteolytic activity on vWF over time” value [2]?
**A.** trADAMTS-13^R312K was resistant to cleavage by tPA under conditions where trADAMTS-13 was proteolyzed completely (FIG. 7A) and lost its catalytic activity (FIG. 7B)

**Q.** And the “residual proteolytic activity on vWF after 6 hours with or without tPA” value [2]?
**A.** trADAMTS-13^R312K and trADAMTS-13^V313D variants were resistant to inactivation by tPA

**Q.** And the “residual proteolytic activity on vWF after 6 hours with or without tPA” value [3]?
**A.** tPA inhibited the proteolytic activity of trADAMTS-13^R312A and trADAMTS-13^V313A variants on vWF (FIG. 8)
